Measured values reported in paper PMC3377377.

Target: histone H3 tail symmetrically dimethylated on R2 and trimethylated on K4 (H3R2me2sK4me3)
Assay: fluorescence polarisation

fold increase in binding affinity against H3K4me3 alone: 20 fold
Substance: PHD finger of RAG2 (domain or fragment)
